This passage reports normalized brightness (sample over the monomer control) results from paper PMC7321188.

Holding throughout (settings): remark: other sources report otherwise
The target of experiment [1] is G2019S LRRK2-GFP (Parkinson's disease mutant of Leucine-Rich Repeat Kinase 2, GFP fusion) (UniProt Q5S007). As to the kind of experiment: fluorescence fluctuation spectroscopy (number and brightness) by TIRF microscopy; TIRF, near the plasma membrane of live differentiated SH-SY5Y cells; brightness normalised to monomeric GFP.
Experiment [2] shares this target. As to the kind of experiment: fluorescence fluctuation spectroscopy (number and brightness + photon counting histogram); two-photon confocal, cytosol of live differentiated SH-SY5Y cells at 37 °C; brightness normalised to monomeric GFP; LRRK2-GFP below 300 nM.
Experiment [3] concerns the target WT LRRK2-GFP (Leucine-Rich Repeat Kinase 2, wild type, GFP fusion) (UniProt Q5S007). As to the kind of experiment: fluorescence fluctuation spectroscopy (number and brightness) by TIRF microscopy; TIRF, near the plasma membrane of live differentiated SH-SY5Y cells; brightness normalised to monomeric GFP.

Regarding “G2019S LRRK2-GFP (Parkinson's disease mutant of Leucine-Rich Repeat Kinase 2, GFP fusion), Q5S007 1-2527”, the normalized brightness (sample over the monomer control) was found to be 2.5 in experiment [1] and 2.1 in experiment [2]. In experiment [3], “WT LRRK2-GFP (Leucine-Rich Repeat Kinase 2, wild type, GFP fusion), Q5S007 1-2527” showed a normalized brightness (sample over the monomer control) of 2.5.
